Results from the supplement of paper PMC9170038.

Test system: MS2 coat protein
Experiment: apparent KD of MS2 coat protein; designed switch direction (-1 OFF switch, 1 ON switch): -1; higher = weaker reporter binding
Summary of the method: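 Designed RNA switches sharing common flanks were transcribed on Illumina chips by stalled E. coli RNA polymerase. They were titrated with SNAP-549-labelled MS2 coat protein, from 0.7 or 1.5 nM doubling to 3 µM, in Tris-HCl pH 7.5 buffer with KCl, MgCl2, BSA, DTT, tRNA and Tween-20. Titrations ran without input, with 200 uM small-molecule ligand, or with an oligonucleotide input. The apparent KD of each design is the median over its clusters, after curve-fitting of normalised cluster fluorescence.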

[1] = Eterna round: R95, input ligand: FMN 200 uM
[2] = Eterna round: R95, input ligand: microRNA oligo, concentration not stated
[3] = Eterna round: R95, input ligand: none
[4] = input ligand: microRNA oligo, concentration not stated

Row | Sequence | apparent KD of MS2 coat protein [1] | apparent KD of MS2 coat protein [2] | apparent KD of MS2 coat protein [3] | apparent KD of MS2 coat protein (input ligand: FMN 200 uM) | apparent KD of MS2 coat protein (input ligand: none) | apparent KD of MS2 coat protein [4]
1 | GAUGAGGUAGGAUAUACGAUAAUAUAGGGUAGAUAUAUAACACAUGAGGAUCACCCAUGUAGAAGGACCAGGAG [Mat - Exclusion 2 - Mod of my Tesla design - D65] (puzzle: Exclusion 2) | 0.0773 µM | 0.0281 µM | 0.0361 µM | – | – | –
2 | CCGGAAAUAGAGGAUAUCGUAUCGGAUACGAUACGAGAAGGCUAUACAUGAGGAUCACCCAUGUGUCCUACCGG [Fiskers Ex 6 - 56] (puzzle: Exclusion 6) | – | 0.0161 µM | – | – | – | –
3 | GCUCACGCAGGAUAUACAUGAGGAUCACCCAUGUUCGAAGGGCGUGGGUACAAAGUCUGUAGAAGGGCGAAAAU [Edrereve] (Eterna round: R97, puzzle: Exclusion 3) | – | – | – | 0.0206 µM | 0.0174 µM | –
4 | ACAUGUAUUGCAGGAUAUGGGACACAUGAGGAUCACCCAUGUGACUACAUGUCAUGCCACGGGUCUCAGAAGGGUAUGUACAUG [Ex NG2 #41] (Eterna round: R96, puzzle: Exclusion NG 2) | – | – | – | 0.0233 µM | 0.0149 µM | 0.0121 µM
5 | UUUAAUUUUUUUUUUUUACAAGCUUUUUGCUCGUCUUAUACAUGAGGAUCACCCAUGUGAAUGGGAGGUAAAUUAUC [JMF 73] (puzzle: Sensor v3, turn-off variant 2) | 0.175 µM | 0.192 µM | 0.116 µM | – | – | –
6 | CCCGACAUGUCUUCGUAAUACAUGAGGAUCACCCAUGUCACGUAGGAUAUCCAGUCGGUAAGAGAGGAGAAGGAUGUAAGAAAU [Vedite] (Eterna round: R96, puzzle: Exclusion NG 3) | – | – | – | 0.0155 µM | 0.0155 µM | 0.00914 µM
7 | AAGAAACAUGAGGAUCACCCAUGUGAGGAUAUGACGAAGAAAAGAAAAGAAAGAAGAGUCAGAAGGCACAAAGG [salish99-ex1_r3_067] (puzzle: Exclusion 1) | 0.132 µM | 0.1 µM | 0.109 µM | – | – | –
8 | ACAAAGCUUUUUGCUCGUCACAUGAGGAUCACCCAUGUGAUAUAAUGAAAAUUAUAUGACAUCCCACUAGGACAUGU [I did it?] (Eterna round: R97, puzzle: Sensor, turn-off variant 1) | – | – | – | 0.0185 µM | 0.0209 µM | –
9 | CCCGUCGAUGUAGGAUAUGCCCGGGUCUCCCGGGCAGAAGGACAUGAGGAUCACCCAUGUUCAUGAGGAUCACCCAUGAAUGGG [Double but mutated MS2] (Eterna round: R96, puzzle: Exclusion NG 1) | – | – | – | 0.0121 µM | 0.0166 µM | 0.0121 µM
10 | CGCUGGACAGGAUAUGUUCUUGGGCACUUGAGGAUCACCCAAGUCAUCGGGACAUCAGGCACAGAAGGGUUUUUGG [salish99_ex5_r4_027] (Eterna round: R97, puzzle: Exclusion 5) | – | – | – | 0.018 µM | 0.0205 µM | –
11 | GAAAAUUGAGGAUAUCCAAAAGGCCACAUGAGGAUCACCCAUGUGUAUCCUCGGCCCAAAGGAGAAGGCAAGAUAA [EX5 A.23] (Eterna round: R97, puzzle: Exclusion 5) | – | – | – | 0.974 µM | 5.08 µM | –
12 | ACAUGUAAUGUAGGAUAUUUUACACAUGAGGAUCACCCAUGUAACCGGAGGCUUUACUAUGAGUAAGAGAAGGGUAUGUACAUG [Ex NG2 #63] (Eterna round: R96, puzzle: Exclusion NG 2) | – | – | – | 0.0905 µM | 0.131 µM | 0.0852 µM
13 | GCUGGUCAAGGAUAUGCAUUCGUGCUUCGGCACGUAAGGUCACAUGAGGAUCACCCAUGUAGAAGGUGACCAGC [E2/6-C1] (Eterna round: R97, puzzle: Exclusion 2) | – | – | – | 0.0316 µM | 0.0209 µM | –
14 | ACGUGAUAUCUGUCGGUGGACAUGAGGAUCACCCAUGUGAGCUUUUUGCUCGUCUUGUAACCCGGUGACAGACCUUC [Encetia] (puzzle: Sensor v3, turn-off variant 1) | 0.0224 µM | 0.213 µM | 0.0223 µM | – | – | –
15 | UGAUCUUUUGUUAGGAUAUGCUGUUGUUUUCAACAGCAGAAGGGACAUGAGGAUCACCCAUGUCUUGUCAUAAA [Magic-04] (puzzle: Brourd's mod of Exclusion 4) | – | 0.0127 µM | – | – | – | –
16 | AGUACUAACACGAGAGUGUUAGUACUAUAAGCUUGUGAAACAUGAGGAUCACCCAUGUCCUCAUAAGCUCGUCUUAU [Mat - Sensor v3 - Turn-off var 2 - D103] (puzzle: Sensor v3, turn-off variant 2) | 0.0153 µM | 0.682 µM | 0.0125 µM | – | – | –
17 | AGUGUGUGGCAGGAUAUUCUGUUGGUUCGGACAGAAGAAGGGUCUACAUGAGGAUCACCCAUGUAAGCGGUUGA [Ex6 #34] (Eterna round: R97, puzzle: Exclusion 6) | – | – | – | 0.173 µM | 0.264 µM | –

Row | Sequence | apparent KD of MS2 coat protein [1] | apparent KD of MS2 coat protein [2] | apparent KD of MS2 coat protein [3] | apparent KD of MS2 coat protein (input ligand: FMN 200 uM) | apparent KD of MS2 coat protein (input ligand: none) | apparent KD of MS2 coat protein [4]
18 | ACAUGAGGAUCACCCAUGUAAACGUAAUGGCUCAUGUAGAGUCAGGAUAUGCGUGGCGAACUCGCGCAGAAGGGACAAGACUGG [Deportation 22 - Jieux - Exclusion NG 3] (Eterna round: R96, puzzle: Exclusion NG 3) | – | – | – | 0.0304 µM | 0.0286 µM | 0.0237 µM
19 | UUGUUACAUGAGGAUCACCCAUGUGAGGAUAUGGUUCAGUACUGUCAUGUCAAGUACUCCAGAAGGCACAUGUU [1st #30] (Eterna round: R97, puzzle: Exclusion 1) | – | – | – | 0.566 µM | 0.508 µM | –
20 | CGGCAAUCCUAGGAUAUGCUAGACGAAAGUCUAGCAGAAGGAGGAACAUGAGGAUCACCCAUGUGUCCUAGCCG [Eli x6 4.02] (Eterna round: R97, puzzle: Exclusion 6) | – | – | – | 0.0235 µM | 0.0202 µM | –
21 | GCAUUUUGGUCGUCUUAUAACAUGAGGAUCACCCAUGUGUUGAGCCCAACUUAUUGUACUCAUGCUAUGGCCUGAUG [Eternabot (L2) Solution 27] (Eterna round: R97, puzzle: Sensor, turn-off variant 1) | – | – | – | 0.0812 µM | 0.0842 µM | –
22 | UGAUCUUUUGUUAGGAUAUGCUGUUUUUUUUUACAGCAGAAGGGACAUGAGGAUCACCCAUGUCUUGUCAUAAA [Magic-05] (puzzle: Brourd's mod of Exclusion 4) | – | 0.0124 µM | – | – | – | –
23 | AAAAGAUAAGGAUAUUGAAGGUUCGACAUGAGGAUCACCCAUGUUAUGUUGGAAAAGGGACAAGAAGGUAUGAAAG [salish99_ex5_r4_203] (Eterna round: R97, puzzle: Exclusion 5) | – | – | – | 0.0315 µM | 0.0418 µM | –
24 | AUGCCACAUGAGGAUCACCCAUGUGAGGAUAUGCUAGUAUUCCUAACGGCCGAUGCAGGCAGAAGGCGCUCGGG [Eternabot (L1) Solution 73] (Eterna round: R97, puzzle: Exclusion 1) | – | – | – | 0.0195 µM | 0.0245 µM | –
25 | UGUUGUUCAGGAUAUGAUGUAUAAUACAUGAGGAUCACCCAUGUAGAUCCUGAUUUGGCGUCAGAAGGGAAUGUUG [salish99_ex5_r4_106] (Eterna round: R97, puzzle: Exclusion 5) | – | – | – | 0.041 µM | 0.0332 µM | –
26 | GGAGCUGGAGGAUAUACAAGAUCGAAAGAUCAAAGAUCCGUACAUGAGGAUCACCCAUGUAGAAGGCCAGCUCC (Eterna round: R97, puzzle: Exclusion 2) | – | – | – | 0.763 µM | 0.0404 µM | –
27 | UUUAGUUCAGGAUAUGUAGACAUUAACAUGAGGAUCACCCAUGUAGAUCCUGAAUUGGCUACAGAAGGGAGCAUUU [Mod of Brourd 10 - Jieux - Exclusion 5] (Eterna round: R97, puzzle: Exclusion 5) | – | – | – | 0.109 µM | 0.0284 µM | –
28 | UUAGUUGGAGGAUAUACGCCGUUUGACAUGAGGAUCACCCAUGUAGAGGCUUAUGUCAAUGUAGAAGGCCGUUUGG [Eternabot (L2) Solution 12] (Eterna round: R97, puzzle: Exclusion 5) | – | – | – | 0.0263 µM | 0.0187 µM | –
29 | UAUUAGCAAGCAACUGGGUACAUGAGGAUCACCCAUGUGCUCGUCUUAUAAGGUACUGUGACGAAAGUCACUGUACC [mod--Eli14] (Eterna round: R97, puzzle: Sensor, turn-off variant 1) | – | – | – | 0.0178 µM | 0.0163 µM | –
30 | UUUUAGGGAGGAUAUACAUUUUUUUUAUUAUCCUCAUUAAUACAUGAGGAUCACCCAUGUAGAAGGCCCAUUUU [Mat - Exclusion 2 - Mod of Hog - D84] (puzzle: Exclusion 2) | – | 0.0479 µM | – | – | – | –
31 | CAUUAUUAUCGAGGAUAUCCUAUUGUAAUACUGGGAGAAGGCGGACUCAACAUGAGGAUCACCCAUGUAAGACGGGUACUAGAU [Ex NG1 #22] (Eterna round: R96, puzzle: Exclusion NG 1) | – | – | – | 0.228 µM | 0.163 µM | 0.139 µM
32 | UAAGGUGGUACCAUGAACAUGAGGAUCACCCAUGUACCUUAGAAGGAUAUCGCGACGUGUACGCGCGAGAAGGUCUACAACGUA [Eternabot solution 35] (Eterna round: R96, puzzle: Exclusion NG 3) | – | – | – | 0.162 µM | 0.0775 µM | 0.0701 µM
33 | GGUGGACAUGAGGAUCACCCAUGUGAGGAUAUCGGCUAUCUUGUCGCUGUCGGUUGCUCGAGAAGGCACAUUGU [Exclusion 1 V95] (puzzle: Exclusion 1) | – | 0.0692 µM | – | – | – | –
34 | AGAGAAUACUCAGGAUAUCUUAAUAGAAAGAGUAGAGAAGGGAGACAUGAGGAUCACCCAUGUGAAGUCUUGAGACUACAUGGU [Prohibition 28 - Jieux - Exclusion NG 1] (Eterna round: R96, puzzle: Exclusion NG 1) | – | – | – | – | – | 0.305 µM
